In data set [1] the test system is maize C4 PEPC. Nature of the data set: Kinetic and regulatory properties of PEPC variants (expressed in E. coli). It is filed as biochemical. Conditions: for HCO3 S0.5 / HCO3 kcat/S0.5 / HCO3 kcat/S0.5 % wt: bicarbonate substrate; for Ki / Malate Ki % wt: inhibitor malate. An excerpt:
(§1) Libraries of modified PEPC polynucleotides were generated using recursive sequence recombination methods (Stemmer, Proc. Natl. Acad. Sci USA 91:10747-10751; Ness, et. al., Nature Biotechnology 20:1251-1255), also known as gene shuffling methods. These libraries incorporated diversity from related PEPC enzymes and also incorporated other designed and random changes. The starting polynucleotide sequence in which the diversity was incorporated was the maize C4 PEPC as shown in SEQ ID NO: 25. Each PEPC variant was expressed in E. coli as a thioredoxin fusion using the pET 32 expression vector (Novagen) with the E. coli expression strain Rosetta gami 2 BL21 DE3 pLYS S. Cultures expressing the variants were grown in 96-well culture blocks, lysed, and then PEPC activity and PEPC protein abundance were determined. The variants with high specific activity were subjected to further rounds of shuffling, for a total of 3 rounds. Examples of nucleotide and amino acid sequences of PEPC variants obtained with this method are SEQ ID NO: 4 to 24.
(§2) Detailed kinetic studies of PEPC variants were done in accordance with methods known in the art. See, for example, Tovar-Mendez et al. (2000) Plant Physiol. 123: 149-160; Tover-Mendez et al. (1998) Biochem. J. 332: 633-642.
(§3) PEPC variants had several improved properties in comparison with wild type PEPC, including greater affinity (lower S0.5 values) with respect to the bicarbonate substrate, greater Kcat/S0.5 values with the bicarbonate or PEP substrates, greater activation (lower A0.5 values) with […] or glycine as activators and greater Ki values with malate as inhibitor.

For data set [2], the target named is T1, maize C4 PEPC (Zea mays, UniProt P04711, A239D/A736P/F800W/F886Y/H119R/H347Q/P482S/R192G/R495K/R556K/R807K/S350A/V555I).
T1 construct: thioredoxin; made in house; host or cells: E. coli Rosetta gami 2 BL21 DE3 pLYS S
The data set is described as above. It is filed as biochemical. To be noted: relative to wild type.
From the text: as §1, §2, §3

[3] abbreviates: PEP substrate, relative to wild type.
The mark [4] stands for this setting: activator Glc-6-P, read-out: Glc-6-P A0.5.
[5] abbreviates: activator Glc-6-P, relative to wild type.
Where [6] appears, read: activator glycine, read-out: Glycine A0.5.
Setting [7] is: activator glycine, relative to wild type.

Where two headings read alike, the source gives them in different places.

B1: 3D10-G8: maize C4 PEPC variant, 14 amino acid substitutions, SEQ ID NO: 20 (protein)
chain: MASTKAPGPGEKHHSIDAQLCQLVPGKVSEDDKLIEYDALLVDRFLNILQDLHGPSLREFVQECYEVSADYEGKGDTTKLGELGAKLTGLAPADAILVASSILHMLNLANLAEEAQIALRRRNSKLKKGGFADEGSATTESDIEETLKRLVSEVGKSPEEVFEALKDQTVDLVFTAHPTQSARRSLLQKNARIRNCLTQLNAKDITDDDKQELDEALQREIQAAFRTDEIRRAQPTPQDEMRYGMSYIHETVWKGVPKFLRRVDTALKNIGINERLPYNVSLIRFSSWMGGDRDGNPRVTPEVTRDVCLLARMMAANLYIDQIEELMFELSMWRCNDELRVRAEELHASAGSKVTKYYIEFWKQIPPNEPYRVILGHVRDKLYNTRERARHLLASGVSEISAESSFTSIEEFLEPLELCYKSLCDCGDKAIADGSLLDLLRQVFTFGLSLVKLDIRQESERHTDVIDAITTYLGIGSYREWSEDKRQEWLLSELKGKRPLLPPDLPQTDEIADVIGAFHVLAELPPDSFGPYIISMATAPSDVLAVELLQRECGIKQPLPVVPLFERLADLQSAPASVERLFSVDWYMDRIKGKQQVMVGYSDSGKDAGRLSAAWQLYKAQEEMAQVAKRYGVKLTLFHGRGGTVGRGGGPTHLAILSQPPDTINGSIRVTVQGEVIEFCFGEEHLCFQTLQRFTAATLEHGMHPPVSPKPEWRKLMDEMAVVATEEYRSVVVKEPRFVEYFRSATPETEYGRMNIGSRPAKRRPGGGITTLRAIPWIFSWTQTRFHLPVWLGVGAAFKWAIDKDVKNFQVLKEMYNEWPFFRVTLDLLEMVFAKGDPGIAGLYDELLVAEELKPFGKQLRDKYVETQQLLLQIAGHKDILEGDPFLKRGLVLRNPYITTLNVFQAYTLKRIRDPNFKVTPQPPLSKEFADENKPAGLVKLNPASEYPPGLEDTLILTMKGIAAGMQNTG
modifications: shuffled variant
As for B1, in the data set on maize C4 PEPC [1] (PEP substrate), the “PEP, no activators kcat/S0.5” value is 86.2 s⁻¹ mM⁻¹ and the “PEP, with activators kcat/S0.5” value came out at 4613 s⁻¹ mM⁻¹. Further, in the data set on maize C4 PEPC [1] (setting [3]), the “PEP, no activators kcat/S0.5 % wt” value came to 253 % wt and the “PEP, with activators kcat/S0.5 % wt” value amounted to 189 % wt. Besides, the “kcat/S0.5 Fold incr.” value in the data set with maize C4 PEPC [1] (PEP substrate, with activators vs no activators) is given as 53.5 Fold incr. Also, in the data set on maize C4 PEPC [1] (activator Glc-6-P), the “Glc-6-P Vmax Fold incr” value is recorded as 2.5 Fold incr. Moreover, the EC50 in the data set on maize C4 PEPC [1] (setting [4]) came out at 920 µM. Also, in the data set with maize C4 PEPC [1] (setting [5]), the “Glc-6-P A0.5 % wt” value was found to be 14 % wt. Further, the “Glycine Vmax Fold incr” value in the data set with maize C4 PEPC [1] (activator glycine) is 3.6 Fold incr. Moreover, in the data set on maize C4 PEPC [1] (setting [6]), the EC50 was 230 µM. Also, the “Glycine A0.5 % wt” value in the data set on maize C4 PEPC [1] (setting [7]) is reported as 6 % wt. In the data set with maize C4 PEPC [1], the “HCO3 S0.5” value was 0.0255 mM; the “HCO3 kcat/S0.5” value came to 3200 s⁻¹ mM⁻¹; the inhibition constant Ki (as a rule, the dissociation constant of the complex between target and ligand, obtained from inhibition or displacement) was 5 mM. Also, in the data set on maize C4 PEPC [1] (relative to wild type), the “HCO3 kcat/S0.5 % wt” value worked out at 151 % wt and the “Malate Ki % wt” value amounted to 1250 % wt.

B2: 3D37-F3: maize C4 PEPC variant, 10 amino acid substitutions, SEQ ID NO: 10 (protein)
chain: MASTKAPGPGEKHHSIDAQLRQLVPGKVSEDDKLIEYDALLVDRFLNILQDLHGPSLREFVQECYEVSADYEGKGDTTKLGELGAKLTGLAPADAILVASSILHMLNLANLAEEVQIARRRRNSKLKKGGFADEGSATTESDIEETLKRLVSEVGKSPEEVFEALKNQTVDLVFTAHPTQSARRSLLQKNAGIRNCLTQLNAKDITDDDKQELDEALQREIQAAFRTDEIRRAQPTPQDEMRYGMSYIHETVWKGVPKFLRRVDTALKNIGINERLPYNVSLIRFSSWMGGDRDGNPRVTPEVTRDVCLLARMMAANLYIDQIEELMFELSMWRCNDELRVRAEELQSSAGSKVTKYYIEFWKQIPPNEPYRVILGHVRDKLYNTRERARHLLASGVSEISAESSFTSIEEFLEPLELCYKSLCDCGDKAIADGSLLDLLRQVFTFGLSLVKLDIRQESERHTDVIDAITTHLGIGSYREWSEDKRQEWLLSELKGKRPLLPPDLPQTDEIADVIGAFHVLAELPPDSFGPYIISMATAPSDVLAVELLQRECGIKQPLPVVPLFERLADLQSAPASVERLFSVDWYMDRIKGKQQVMVGYSDSGKDAGRLSAAWQLYRAQEEMAQVAKRYGVKLTLFHGRGGTVGRGGGPTHLAILSQPPDTINGSIRVTVQGEVIEFCFGEEHLCFQTLQRFTAATLEHGMHPPVSPKPEWRKLMDEMAVVATEEYRSVVVKEPRFVEYFRSATPETEYGRMNIGSRPAKRRPGGGITTLRAIPWIFSWTQTRFHLPVWLGVGAAFKWAIDKDVKNFQVLKEMYNEWPFFRVTLDLLEMVFAKGDPGIAGLYDELLVAEELKPFGKQLRDKYVETQQLLLQIAGHKDILEGDPYLKQGLVLRNPYITTLNVFQAYTLKRIRDPNFKVTPQPPLSKEFADENKPAGLVKLNPASEYPPGLEDTLILTMKGIAAGMQNTG
modifications: shuffled variant
On to B2, for which, in the data set with maize C4 PEPC [2], the “affinity (S0.5 value) for bicarbonate, in words” value is recorded as “higher affinity”. In the data set on maize C4 PEPC [1], the “kcat/S0.5 Fold incr.” value is 70.1 Fold incr, the “HCO3 S0.5” value turned out to be 0.0167 mM, the “HCO3 kcat/S0.5” value is 3512 s⁻¹ mM⁻¹ and the Ki came out at 2.4 mM. Also, in the data set with maize C4 PEPC [1] (PEP substrate), the “PEP, no activators kcat/S0.5” value amounted to 71.5 s⁻¹ mM⁻¹ and the “PEP, with activators kcat/S0.5” value is 5010 s⁻¹ mM⁻¹. Besides, in the data set with maize C4 PEPC [1] (setting [3]), the “PEP, no activators kcat/S0.5 % wt” value came out at 210 % wt and the “PEP, with activators kcat/S0.5 % wt” value amounted to 205 % wt. In addition, in the data set with maize C4 PEPC [1] (activator Glc-6-P), the “Glc-6-P Vmax Fold incr” value is listed as 7.2 Fold incr. Further, the EC50 in the data set on maize C4 PEPC [1] (setting [4]) was 4460 µM. In addition, the “Glc-6-P A0.5 % wt” value in the data set with maize C4 PEPC [1] (setting [5]) amounted to 66 % wt. In addition, in the data set on maize C4 PEPC [1] (activator glycine), the “Glycine Vmax Fold incr” value is 5.8 Fold incr. Further, the EC50 in the data set with maize C4 PEPC [1] (setting [6]) came out at 930 µM. For the same molecule, the “Glycine A0.5 % wt” value with maize C4 PEPC [1] (setting [7]) was 26 % wt. Further, in the data set with maize C4 PEPC [1] (relative to wild type), the “HCO3 kcat/S0.5 % wt” value worked out at 166 % wt; the “Malate Ki % wt” value is recorded as 600 % wt; the “Ki for malate, in words” value is “increased Ki”; the “activation by glucose-6-phosphate, in words” value is recorded as “increased activation”. In addition, in the data set with maize C4 PEPC [1] (relative to wild type), the “activation by glycine, in words” value is “increased activation”.
